In PMC12098241:

Experiments:
[1] = biological target: SIRPα-αMSLN^M4F5 local inhibitory checkpoint monoclonal antibody (LicMAb); experiment: flow cytometry on cells; binding to SUIT-2-MSLN cells in the presence of saturating concentrations of soluble MSLN (Supplementary Figure S7a)
[2] = biological target: SIRPα-αMSLN^M4F5 local inhibitory checkpoint monoclonal antibody (LicMAb); experiment: flow cytometry on cells; binding to SUIT-2-MSLN cells in the presence of 2.5 µM rhMSLN as competitor (Supplementary Figure S6b, c)

percent reduction of the binding of m2 to SUIT-2-MSLN cells by saturating soluble MSLN [1]: 53% | percent reduction of the binding of m2 to SUIT-2-MSLN cells by 2.5 µM rhMSLN [2]: 40%
Substance: recombinant human MSLN (rhMSLN) (from UniProt Q13421 37-598) (natural protein)
